The text below walks through data of IntAct's records for PubMed 21131967.

B1: N-lysine methyltransferase SETD6 (Homo sapiens), Q8TBK2 (parent)
chain: MATQAKRPRVAGPVDGGDLDPVACFLSWCRRVGLELSPKVSERAGGRRTRGGARAALTSPPAQVAVSRQGTVAGYGMVARESVQAGELLFVVPRAALLSQHTCSIGGLLERERVALQSQSGWVPLLLALLHELQAPASRWRPYFALWPELGRLEHPMFWPEEERRCLLQGTGVPEAVEKDLANIRSEYQSIVLPFMEAHPDLFSLRVRSLELYHQLVALVMAYSFQEPLEEEEDEKEPNSPVMVPAADILNHLANHNANLEYSANCLRMVATQPIPKGHEIFNTYGQMANWQLIHMYGFVEPYPDNTDDTADIQMVTVREAALQGTKTEAERHLVYERWDFLCKLEMVGEEGAFVIGREEVLTEEELTTTLKVLCMPAEEFRELKDQDGGGDDKREEGSLTITNIPKLKASWRQLLQNSVLLTLQTYATDLKTDQGLLSNKEVYAKLSWREQQALQVRYGQKMILHQLLELTS
B2: Transcription factor p65 (Mus musculus), Q04207 (parent)
chain: MDDLFPLIFPSEPAQASGPYVEIIEQPKQRGMRFRYKCEGRSAGSIPGERSTDTTKTHPTIKINGYTGPGTVRISLVTKDPPHRPHPHELVGKDCRDGYYEADLCPDRSIHSFQNLGIQCVKKRDLEQAISQRIQTNNNPFHVPIEEQRGDYDLNAVRLCFQVTVRDPAGRPLLLTPVLSHPIFDNRAPNTAELKICRVNRNSGSCLGGDEIFLLCDKVQKEDIEVYFTGPGWEARGSFSQADVHRQVAIVFRTPPYADPSLQAPVRVSMQLRRPSDRELSEPMEFQYLPDTDDRHRIEEKRKRTYETFKSIMKKSPFNGPTEPRPPTRRIAVPTRNSTSVPKPAPQPYTFPASLSTINFDEFSPMLLPSGQISNQALALAPSSAPVLAQTMVPSSAMVPLAQPPAPAPVLTPGPPQSLSAPVPKSTQAGEGTLSEALLHLQFDADEDLGALLGNSTDPGVFTDLASVDNSEFQQLLNQGVSMSHSTAEPMLMEYPEAITRLVTGSQRPPDPAPTPLGTSGLPNGLSGDEDFSSIADMDFSALLSQISS
partner: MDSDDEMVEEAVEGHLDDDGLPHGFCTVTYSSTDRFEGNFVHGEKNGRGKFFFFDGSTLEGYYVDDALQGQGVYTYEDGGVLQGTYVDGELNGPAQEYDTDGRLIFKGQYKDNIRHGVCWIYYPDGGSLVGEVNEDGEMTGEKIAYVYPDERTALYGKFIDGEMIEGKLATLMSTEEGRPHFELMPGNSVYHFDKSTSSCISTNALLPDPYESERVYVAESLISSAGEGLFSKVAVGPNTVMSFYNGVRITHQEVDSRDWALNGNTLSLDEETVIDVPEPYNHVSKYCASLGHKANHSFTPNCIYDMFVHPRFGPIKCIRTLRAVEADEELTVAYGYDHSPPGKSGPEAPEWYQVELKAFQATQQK
B3: Transcription factor p65 (Mus musculus), Q04207 (parent)
chain: B2 chain
partner: B1 chain

The first assay covers variants of B1. The settings on record: with tf65_mouse Rela, Q04207.
Regarding MATQAKRPRVAGPVDGGDLDPVACFLSWCRRVGLELSPKVSERAGGRRTRGGARAALTSPPAQVAVSRQGTVAGYGMVARESVQAGELLFVVPRAALLSQHTCSIGGLLERERVALQSQSGWVPLLLALLHELQAPASRWRPYFALWPELGRLEHPMFWPEEERRCLLQGTGVPEAVEKDLANIRSEYQSIVLPFMEAHPDLFSLRVRSLELYHQLVALVMAYSFQEPLEEEEDEKEPNSPVMVPAADILNHLANHNANLEYSANCLRMVATQPIPKGHEIFNTAGQMANWQLIHMYGFVEPYPDNTDDTADIQMVTVREAALQGTKTEAERHLVYERWDFLCKLEMVGEEGAFVIGREEVLTEEELTTTLKVLCMPAEEFRELKDQDGGGDDKREEGSLTITNIPKLKASWRQLLQNSVLLTLQTYATDLKTDQGLLSNKEVYAKLSWREQQALQVRYGQKMILHQLLELTS [Y285A], the “effect of a mutation on the interaction” value is “disrupting interaction”.

In another assay the parent is B2. The note with it: with setd7_human SETD7, Q8WTS6.
For MDDLFPLIFPSEPAQASGPYVEIIEQPKQRGMRFRYKCEGRSAGSIPGERSTDTTKTHPTIKINGYTGPGTVRISLVTKDPPHRPHPHELVGKDCRDGYYEADLCPDRSIHSFQNLGIQCVKKRDLEQAISQRIQTNNNPFHVPIEEQRGDYDLNAVRLCFQVTVRDPAGRPLLLTPVLSHPIFDNRAPNTAELKICRVNRNSGSCLGGDEIFLLCDKVQKEDIEVYFTGPGWEARGSFSQADVHRQVAIVFRTPPYADPSLQAPVRVSMQLRRPSDRELSEPMEFQYLPDTDDRHRIEEKRKRTYETFRSIMKKSPFNGPTEPRPPTRRIAVPTRNSTSVPKPAPQPYTFPASLSTINFDEFSPMLLPSGQISNQALALAPSSAPVLAQTMVPSSAMVPLAQPPAPAPVLTPGPPQSLSAPVPKSTQAGEGTLSEALLHLQFDADEDLGALLGNSTDPGVFTDLASVDNSEFQQLLNQGVSMSHSTAEPMLMEYPEAITRLVTGSQRPPDPAPTPLGTSGLPNGLSGDEDFSSIADMDFSALLSQISS [K310R], the “effect of a mutation on the interaction” value is reported as “disrupting interaction”.

Variants of B3 are the subject of another assay. The settings on record: with setd6_human SETD6, Q8TBK2.
As for MDDLFPLIFPSEPAQASGPYVEIIEQPKQRGMRFRYKCEGRSAGSIPGERSTDTTKTHPTIKINGYTGPGTVRISLVTKDPPHRPHPHELVGKDCRDGYYEADLCPDRSIHSFQNLGIQCVKKRDLEQAISQRIQTNNNPFHVPIEEQRGDYDLNAVRLCFQVTVRDPAGRPLLLTPVLSHPIFDNRAPNTAELKICRVNRNSGSCLGGDEIFLLCDKVQKEDIEVYFTGPGWEARGSFSQADVHRQVAIVFRTPPYADPSLQAPVRVSMQLRRPSDRELSEPMEFQYLPDTDDRHRIEEKRKRTYETFRSIMKKSPFNGPTEPRPPTRRIAVPTRNSTSVPKPAPQPYTFPASLSTINFDEFSPMLLPSGQISNQALALAPSSAPVLAQTMVPSSAMVPLAQPPAPAPVLTPGPPQSLSAPVPKSTQAGEGTLSEALLHLQFDADEDLGALLGNSTDPGVFTDLASVDNSEFQQLLNQGVSMSHSTAEPMLMEYPEAITRLVTGSQRPPDPAPTPLGTSGLPNGLSGDEDFSSIADMDFSALLSQISS [K310R], the “effect of a mutation on the interaction” value is “disrupting interaction”.
